The supplement of paper PMC11865577

What was measured:
Experiment in all cases: pull-down binding Z-score (relative to library population); higher = stronger binding
[1] = system: G-clamp-N3 (biotin conjugate); settings: RNA library: Library-1 (pre-miRNA loops + repeats)
Procedure, shortened: (§1)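 Streptavidin beads with 100 pmol of biotin-conjugated small molecule were incubated for 60 min at 25 °C with 1 μg of heat-folded Cy5- or Cy3-end-labelled RNA library in phosphate/NaCl/KCl buffer. Bound RNA was eluted in hot SDS after three washes and hybridised to a DNA barcode microarray at 55.5 °C for 20 h. Each binding score is a library-referenced Z-score, computed after beads-only subtraction and a trimmed mean of barcoded replicate probes.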

TO-N3 (biotin conjugate) = settings: RNA library: Library-2
Procedure, shortened: as §1

[2] = system: TO-3-N3 (biotin conjugate); settings: RNA library: Library-2
Procedure, shortened: as §1

[3] = system: TO-N3-2 (biotin conjugate); settings: RNA library: Library-2
Procedure, shortened: as §1

[4] = system: TO-3-N3-2 (biotin conjugate); settings: RNA library: Library-2
Procedure, shortened: as §1

Row | Sequence | pull-down binding Z-score [1] | pull-down binding Z-score (TO-N3 (biotin conjugate)) | pull-down binding Z-score [2] | pull-down binding Z-score [3] | pull-down binding Z-score [4]
1 | GGGUGAUACACAAGCCUGACCCUCCC [hsa-mir-6793] | -0.976 | 0.416 | 0.244 | 0.954 | 0.55
2 | GGGUGGGCGGGGGCGGCCGGUGGGAACCCCGCCCCGCCCCGCGCCCGCACUCACCC [hsa-mir-7108] | 0.489 | 5.22 | 6.31 | 4.08 | 6.86
3 | GGGUGUAUGGUAUAGGGGUAGCCU [hsa-mir-3137] | 3.31 | 2.5 | 2.13 | 2.42 | 1.54
4 | GGGUUCAAUAGAUUGCUUUAGCUGAAGCAAGCCU [hsa-mir-8054] | -0.803 | 0.00977 | 0.125 | -0.201 | 0.131
5 | GGGUUGCAUCCUAAGCUGUGCUGGAGCUUCCC [hsa-mir-623] | -0.84 | 0.877 | 0.567 | 0.682 | 0.384
6 | GGUAAGGUCUUUCAGCC [hsa-mir-7150] | 0.213 | 0.622 | 0.648 | 0.413 | 0.105
7 | GGUACUUUAUAAUUUCAAAAAGUCCC [hsa-mir-361] | -0.194 | -1.51 | -1.13 | -1.41 | -0.356
8 | GGUAGAGAUGAUUUUUCCUACU [hsa-mir-5003] | 0.245 | 1.78 | 1.76 | 0.226 | 0.65
9 | GGUAGGUUACGUCAUGCUGUUCUACC [hsa-mir-140] | 0.599 | -0.0663 | -0.251 | 0.193 | -0.139
10 | GGUAUGGAUUCUGUUGUUUUGGCAACAUUCU [hsa-mir-8088] | 0.269 | -0.328 | -0.382 | -0.244 | 0.124
11 | GGUCAGGUGGUGCCCUCCUUCCAUGGGUAGAGCCAGAGAUGGUGGGUUCUGGCU [hsa-mir-6131] | 0.859 | 1.16 | 0.869 | 2.25 | 0.142
12 | GGUCUGAGCCCAUGUGUGGACCUAGGUCUGCUGUUAAACUGACU [hsa-mir-6831] | -0.752 | 0.492 | 0.286 | 0.647 | 0.106
13 | GGUGCAAAGCCUGCCCGCCCC [hsa-mir-5090] | -0.81 | 0.254 | -0.134 | 1.09 | -0.136
14 | GGUGCAGUCAGUCCUAGCUC [hsa-mir-3135b] | -1.49 | 0.224 | -0.343 | 1.06 | 0.0356
15 | GGUGGCAAUCAAGGUCUAGCCACC [hsa-mir-4733] | 1.02 | 0.287 | 0.369 | 0.228 | 0.265
16 | GGUGGGCCUCUGCUCUGGCCCCUCC [hsa-mir-1343] | 0.11 | 0.0649 | 0.0146 | 0.301 | -0.315
17 | GGUGGGGGCUCUGAGUGGGGAAAGUGGGGGCCUAGGGGAGGUCACAGU [hsa-mir-4259] | 0.943 | 4.21 | 4.45 | 2.4 | 3.57
18 | GGUGGGUGCC [hsa-mir-1268b] | -0.587 | -0.332 | -0.142 | -0.075 | -0.32
